# In the supplement of paper PMC10266784:
# B1: library; numbered along this chain (parent)
# chain: MAAAAAAAAEQQSSNGPVKKSMREKAVERRSVNKEHNSNFKAGYIPIDEDRLHKTGLRGRKGNLAICVIILLFILAVINLIITLVIWAVIRIGPNGCDSMEFHESGLLRFKQVSDMGVIHPLYKSTVGGRRNENLVITGNNQPIVFQQGTTKLSVENNKTSITSDIGMQFFDPRTQNILFSTDYETHEFHLPSGVKSLNVQKASTERITSNATSDLNIKVDGRAIVRGNEGVFIMGKTIEFHMGGNMELKAENSIILNGSVMVSTTRLPSSSSGDQLGSGDWVRYKLCMCADGTLFKVQVTSQNMGCQISDNPCGNTH
# Variants of: B1
# Assay: SGCB cell-surface expression functional score (HA stain, bin4 vs bin1, normalised to synonymous) (log10 ratio); higher = more cell-surface SGCB (functional)
# In short: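 Codon-saturation libraries of HA-tagged, YFP-fused human beta-sarcoglycan were lentivirally transduced at MOI <0.1 into HEK293 cells stably expressing alpha-, gamma- and delta-sarcoglycan. YFP-positive cells were sorted after 72 hours, grown 5–7 days, stained on ice with Alexa Fluor 647 anti-HA, fixed, sorted into four 5% intensity bins and amplicon-sequenced. The functional score is the log ratio of highest-bin to lowest-bin variant frequency, taken as the median over codons and duplicate transductions. Synonymous variants were scaled per section to mean 0, SD 0.5.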
row,Variant,SGCB cell-surface expression functional score (log10)
1,H120I,0.16
2,H120Q,-0.03
3,H120R,0.35
4,H120L,0.39
5,H120D,-0.59
6,H120V,-0.04
7,H120Y,0.03
8,H120N,0.06
9,H120T,0.44
10,H120M,-0.63
11,H120E,-0.09
12,H120K,-0.13
13,H120C,0.35
14,H120W,0.14
15,H120A,-0.12
16,H120S,0.28
17,H120F,0.08
18,H120G,-1.08
19,H120P,-1.27
20,T126V,-0.28
21,T126C,0.11
22,T126F,0.32
23,T126G,-0.18
24,T126H,0.76

row,Variant,SGCB cell-surface expression functional score (log10)
1,T126P,-0.31
2,T126R,-0.36
3,T126W,0.62
4,T126M,0.29
5,T126I,0.24
6,T126L,-0.13
7,T126Q,-0.75
8,T126A,0.13
9,T126K,-0.52
10,T126N,-0.36
11,T126Y,0.74
12,T126D,-0.63
13,T126E,0.37
14,T126S,0.02
15,G128M,0.04
16,G128V,-0.76
17,G128Q,-0.11
18,G128D,-0.05
19,G128H,-0.22
20,G128S,0.07
21,G128K,-1.35
22,G128F,0.6
23,G128Y,0.6
24,G128T,-0.56

row,Variant,SGCB cell-surface expression functional score (log10)
1,G128A,0.14
2,G128R,-0.6
3,G128E,0.08
4,G128C,-0.21
5,G128P,-1.25
6,G128N,0.37
7,G128L,0.03
8,G128W,0.3
9,G128I,0.01
10,Q112T,-0.79
11,Q112G,-0.59
12,Q112S,-0.17
13,Q112R,0.07
14,Q112N,-1.32
15,Q112I,0.03
16,Q112H,0.02
17,Q112Y,-0.7
18,Q112W,-0.83
19,Q112K,-0.1
20,Q112V,-0.18
21,Q112M,-0.17
22,Q112P,-1.14
23,Q112L,-0.73
24,P121H,-0.14

row,Variant,SGCB cell-surface expression functional score (log10)
1,P121I,-0.16
2,P121R,-1
3,P121C,0.36
4,P121N,0.38
5,P121L,0.04
6,P121D,-0.76
7,P121S,0.12
8,P121Q,-0.72
9,P121A,-0.17
10,P121G,-0.47
11,P121Y,-0.96
12,P121M,-0.6
13,P121T,-0.36
14,P121W,-0.71
15,P121V,0.5
16,P121E,-1.17
17,P121K,-0.78
18,P121F,0.33
19,K124H,-0.35
20,K124D,-0.66
21,K124I,0.1
22,K124W,-0.36
23,K124N,0.4
24,K124P,0.61

row,Variant,SGCB cell-surface expression functional score (log10)
1,K124Y,0.18
2,K124A,-0.41
3,K124S,0.11
4,K124V,0.39
5,K124F,-0.08
6,K124E,-0.5
7,K124R,0.3
8,K124G,0.08
9,K124L,0.07
10,K124T,0.31
11,K124Q,0.27
12,K124M,-0.6
13,K124C,0.21
14,G117S,-0.38
15,G117N,0.02
16,G117L,-1.42
17,G117K,-1.66
18,G117W,-1.14
19,G117C,-0.28
20,G117I,-1.22
21,G117D,-0.32
22,G117H,-0.9
23,G117F,-1.46
24,G117A,-0.7

row,Variant,SGCB cell-surface expression functional score (log10)
1,G117V,-1.36
2,G117T,-0.96
3,G117R,-0.86
4,G117M,-0.46
5,G117Y,-1.35
6,G117E,-0.94
7,G117Q,-1.06
8,G117P,-1.21
9,V127W,-1.36
10,V127P,-0.5
11,V127N,-0.94
12,V127K,-1.2
13,V127H,-1.08
14,V127C,0.53
15,V127T,-0.96
16,V127L,-0.04
17,V127D,-1.79
18,V127G,-0.79
19,V127Y,-1.55
20,V127S,-1.34
21,V127R,-0.96
22,V127I,-0.32
23,V127E,-0.65
24,V127F,-0.12

row,Variant,SGCB cell-surface expression functional score (log10)
1,V127A,-0.57
2,V127M,-0.2
3,V127Q,-1.97
4,S125V,-0.88
5,S125H,-0.37
6,S125Q,-0.7
7,S125W,-0.51
8,S125Y,-0.79
9,S125G,0.56
10,S125A,-0.08
11,S125M,0.21
12,S125D,0.46
13,S125N,-0.2
14,S125L,-1.2
15,S125I,-1.02
16,S125K,-0.93
17,S125T,-0.3
18,S125F,-0.45
19,S125E,-0.08
20,S125P,-0.99
21,S125R,-1.09
22,S125C,0.13
23,Y123K,-0.02
24,Y123R,-0.37

row,Variant,SGCB cell-surface expression functional score (log10)
1,Y123S,0.68
2,Y123N,0.64
3,Y123M,-0.24
4,Y123P,0.1
5,Y123E,0.65
6,Y123A,0.29
7,Y123F,0.2
8,Y123D,-0.53
9,Y123V,-0.18
10,Y123W,0.33
11,Y123G,-0.11
12,Y123L,0.02
13,Y123Q,0.06
14,Y123H,-0.35
15,Y123T,-0.12
16,Y123I,-0.3
17,Y123C,0.25
18,G129Q,-1.09
19,G129M,-0.82
20,G129A,-0.41
21,G129S,0.47
22,G129L,-1.15
23,G129F,-0.78
24,G129R,-1.04

row,Variant,SGCB cell-surface expression functional score (log10)
1,G129K,-1.37
2,G129E,-0.9
3,G129N,-0.81
4,G129H,-0.43
5,G129D,-0.94
6,G129T,-0.06
7,G129P,0.12
8,G129C,-1.01
9,G129I,-0.84
10,L122P,-1.07
11,L122D,0.28
12,L122C,0.06
13,L122R,0.49
14,L122N,-0.12
15,L122W,0.1
16,L122S,0.31
17,L122G,0.45
18,L122V,-0.14
19,L122Q,0.48
20,L122H,0.55
21,L122A,-0.03
22,L122I,0.65
23,L122T,0.13
24,L122F,-0.12

row,Variant,SGCB cell-surface expression functional score (log10)
1,L122Y,0.31
2,L122K,-0.12
3,L122M,0.05
4,L122E,0.35
5,V113Q,-0.79
6,V113F,-0.38
7,V113H,-0.84
8,V113Y,-0.42
9,V113S,-0.27
10,V113E,-0.5
11,V113M,-0.22
12,V113A,-0.4
13,V113C,-0.61
14,V113N,-0.49
15,V113R,-0.07
16,V113I,0.04
17,V113D,-0.21
18,V113P,0.22
19,V113K,0.32
20,V113G,-0.67
21,V113L,-0.01
22,V113W,-1.16
23,V113T,-0.1
24,S114T,-0.37

row,Variant,SGCB cell-surface expression functional score (log10)
1,S114R,-1.39
2,S114E,-0.49
3,S114M,-0.25
4,S114K,-1.22
5,S114C,0.01
6,S114G,-0.7
7,S114Q,-1.66
8,S114W,-0.55
9,S114H,-1.62
10,S114N,-0.49
11,S114F,-0.89
12,S114D,-1.53
13,S114A,0.55
14,S114I,0.12
15,S114L,-1.15
16,S114Y,-1.47
17,S114P,-0.77
18,S114V,-0.22
19,I119A,-0.49
20,I119C,-0.49
21,I119F,-1.3
22,I119D,-0.97
23,I119G,-0.96
24,I119M,0.58

row,Variant,SGCB cell-surface expression functional score (log10)
1,I119L,-0.19
2,I119S,-1.47
3,I119W,-1.04
4,I119Q,-1.26
5,I119E,-1.16
6,I119N,-1.15
7,I119P,-0.94
8,I119H,-1.49
9,I119K,-1.36
10,I119Y,-1.14
11,I119V,-0.21
12,I119T,-0.97
13,I119R,-0.88
14,D115Q,-0.98
15,D115G,-1.39
16,D115R,-1.16
17,D115K,-0.97
18,D115I,-0.89
19,D115S,-1.55
20,D115A,-1.73
21,D115V,-0.75
22,D115N,-0.27
23,D115M,-1.51
24,D115F,-1.29

row,Variant,SGCB cell-surface expression functional score (log10)
1,D115W,-1.77
2,D115H,-0.53
3,D115E,-0.54
4,D115Y,-0.03
5,D115P,-1.39
6,D115L,-1.17
7,D115T,-1.39
8,D115C,-1.36
9,V118L,-0.05
10,V118Q,-0.24
11,V118C,0.74
12,V118G,-0.31
13,V118R,-0.19
14,V118A,-0.02
15,V118W,0.32
16,V118F,-0.06
17,V118P,-0.73
18,V118T,0.29
19,V118I,0.32
20,V118M,-0.05
21,V118H,-0.23
22,V118E,-0.21
23,V118N,-0.97
24,V118S,0.19

row,Variant,SGCB cell-surface expression functional score (log10)
1,V118K,0.64
2,V118D,-0.11
3,V118Y,-0.32
4,M116C,-1.02
5,M116R,-1.55
6,M116F,0.29
7,M116L,0.08
8,M116W,-1.47
9,M116N,-1.13
10,M116S,-1.38
11,M116V,-1.02
12,M116G,-1.48
13,M116E,-1.47
14,M116I,-1.03
15,M116Y,-1.63
16,M116A,-1.24
17,M116K,-1.21
18,M116D,-0.59
19,M116Q,-1.26
20,M116H,-1.7
21,M116T,-0.8
22,M116P,-1.45
